This is an account of results in patent US20230073007A1, “SWITCHING BINDER, PREPARATION METHOD THEREFOR, AND PHARMACEUTICAL COMPOSITION, ASSAY KIT, AND ANTIGEN AND ANTIBODY ASSAY METHOD, EACH USING SAME” (OPTOLANE TECHNOLOGIES INC., priority 2019, published 2023).

In the assay the target is anti-HRP antibody. The assay is described as follows: release of labelled peptide L1 from anti-HRP antibody in solution, HRP concentration varied; released peptide separated and read by fluorescence.

As to “HRP (from UniProt P00433 31-338) (enzyme)”, the EC50 (read off the curve) worked out at 900 nM.
